Assay results: patent US20200392228A1 (PANDION OPERATIONS, published 2020)
Residue numbers refer to the chain shown, from its start.

B1: MAdCAM antibody Clone ID 43 of Table 6 (scFv) (scFv)
scFv: EVQLLESGGGLVQPGGSLRLSCAASGFTFDDFAMHWVRQAPGKGLEWVSGISGNGDSRYYADSVKGRFTISRDNSKNTLYLQMNSLRAEDTAVYYCARDASYGGNYGMDVWGQGTTVTVSSGGGGSGGGGSGGGGSGGGGSDIQMTQSPSSLSASVGDRVTITCQASQDIRNYLNWYQQKPGKAPKLLIYKASTLESGVPSRFSGSGSGTDFTLTISSLQPEDFATYYCQQANSFPLTFGPGTKVDIK
B2: MAdCAM antibody Clone ID 45 of Table 6 (scFv) (scFv)
scFv: EVQLLESGGGLVQPGGSLRLSCAASGFSVSSNYMSWVRQAPGKGLEWVAGISYDGSSKPYADSVKGRFTISRDNSKNTLYLQMNSLRAEDTAVYYCARSRGIAARPLQHWGQGTLVTVSSGGGGSGGGGSGGGGSGGGGSDIVMTQSPDSLAVSLGERATINCKSSQSVLYSSNNKNYLAWYQQKPGQPPKLLIYWASTRQSGVPDRFSGSGSGTDFTLTISSLQAEDVAVYYCHQYYGHPPTFGGGTKVEIK
B3: MAdCAM antibody Clone ID 46 of Table 6 (scFv) (scFv)
scFv: B2 scFv with W196Q
B4: MAdCAM antibody Clone ID 48 of Table 6 (scFv) (scFv)
scFv: EVQLLESGGGLVQPGGSLRLSCAASGFTFSDHGMHWVRQAPGKGLEWVSVIYGGESTYYADSVKGRFTISRDNSKNTLYLQMNSLRAEDTAVYYCARDPAVAGGGIFDYWGQGTLVTVSSGGGGSGGGGSGGGGSGGGGSDIQMTQSPSSLSASVGDRVTITCRASQGISNYLAWYQQKPGKAPKLLIYDASNLETGVPSRFSGSGSGTDFTLTISSLQPEDFATYYCQQSYSTCYTFGQGTKLEIK
B5: MAdCAM antibody Clone ID 52 of Table 6 (scFv) (scFv)
scFv: EVQLLESGGGLVQPGGSLRLSCAASGFTFSNSDMNWVRQAPGKGLEWVAHIWNDGSQKYYADSVKGRFTISRDNSKNTLYLQMNSLRAEDTAVYYCARDRTDPGYSSAMDVWGQGTTVTVSSGGGGSGGGGSGGGGSGGGGSDIQMTQSPSSLSASVGDRVTITCRASQDIRNYLGWYQQKPGKAPKLLIYDASSLETGVPSRFSGSGSGTDFTLTISSLQPEDFATYYCQQATSLPLTFGGGTKVEIK
B6: MAdCAM antibody Clone ID 53 of Table 6 (scFv) (scFv)
scFv: QVQLVQSGAEVKKPGASVKVSCKASGYTFTSYDINWVRQAPGQGLEWMGWMNPNSGNTGYAQKFQGRVTMTRDTSTSTVYMELSSLRSEDTAVYYCAKDSDYSNLLWDYWGQGTLVTVSSGGGGSGGGGSGGGGSGGGGSDIQMTQSPSSLSASVGDRVTITCRASQDITNDLGWYQQKPGKAPKLLIYQASSLESGVPSRFSGSGSGTDFTLTISSLQPEDFATYYCQQSYTIPLTFGQGTKVEIK
B7: MAdCAM antibody Clone ID 3 of Table 6 (scFv) (scFv)
scFv: QVQLVQSGAEVKKPGASVKVSCKASGYPFIGQYLHWVRQAPGQGLEWMGIINPSGGSTSYAQKFQGRVTMTRDTSTSTVYMELSSLRSEDTAVYYCAREGRLSYGMDAWGQGTLVTVSSGGGGSGGGGSGGGGSGGGGSDIQMTQSPSSLSASVGDRVTITCRASQSISSYLAWYQQKPGKAPKLLIYGASTLESGVPSRFSGSGSGTDFTLTISSLQPEDFATYYCQQTWGPPFTFGQGTKLEIK
B8: MAdCAM antibody Clone ID 40 of Table 6 (scFv) (scFv)
scFv: QVQLVQSGAEVKKPGASVKVSCKASGYTFTSYGISWVRQAPGQGLEWMGIINPRGGSTIFAQKFQGRVTMTRDTSTSTVYMELSSLRSEDTAVYYCARGTRSSGWYGWFDPWGQGTLVTVSSGGGGSGGGGSGGGGSGGGGSDIQMTQSPSSLSASVGDRVTITCRASQGIGNWLAWYQQKPGKAPKLLIYAASNLETGVPSRFSGSGSGTDFTLTISSLQPEDFATYYCQQIHSYPLTFGGGTKVEIK
B9: MAdCAM antibody Clone ID 50 of Table 6 (scFv) (scFv)
scFv: QVQLVQSGAEVKKPGASVKVSCKASGYTFTSYDINWVRQAPGQGLEWMGWINPNSGTTGYAQKFQGRVTMTRDTSTSTVYMELSSLRSEDTAVYYCARSPYYYYGMDVWGQGTTVTVSSGGGGSGGGGSGGGGSGGGGSDIQMTQSPSSLSASVGDRVTITCRASHFISRWVAWYQQKPGKAPKLLIYAASTLQSGVPSRFSGSGSGTDFTLTISSLQPEDFATYYCQQSYSGISFGPGTKVDIK
B10: MAdCAM antibody Clone ID 57 of Table 6 (scFv) (scFv)
scFv: QVQLVQSGAEVKKPGASVKVSCKASGYTFTSYYMHWVRQAPGQGLEWMGIINPSGGSTSYAQKFQGRVTMTRDTSTSTVYMELSSLRSEDTAVYYCARDSVAGTGGRYYGMDVWGQGTLVTVSSGGGGSGGGGSGGGGSGGGGSDIQMTQSPSSLSASVGDRVTITCRASQGISNYFAWYQQKPGKAPKLLIYAASSLQGGVPSRFSGSGSGTDFTLTISSLQPEDFATYYCQQSYSLPYTFGQGTKLEIK
B11: MAdCAM antibody Clone ID 44 of Table 6 (scFv) (scFv)
scFv: EVQLVESGGGLVKPGGSLRLSCAASGFTFSSYWMSWVRQAPGKGLEWVSAIGTGGGTYYAAPVKGRFTISRDDSKNTLYLQMNSLKTEDTAVYYCAREWLVPYYGMDVWGQGTTVTVSSGGGGSGGGGSGGGGSGGGGSDIQMTQSPSSLSASVGDRVTITCRASQSISRWLAWYQQKPGKAPKLLIYGASNLQSGVPSRFSGSGSGTDFTLTISSLQPEDFATYYCQQSYSTPWTFGQGTKVEIK
B12: MAdCAM antibody Clone ID 51 of Table 6 (scFv) (scFv)
scFv: EVQLLESGGGLVQPGGSLRLSCAASGFTFNNYGMNWVRQAPGKGLEWVSRINSDGSSTSYADSVKGRFTISRDNSKNTLYLQMNSLRAEDTAVYYCARGAYYYYYMDVWGQGTLVTVSSGGGGSGGGGSGGGGSGGGGSEIVMTQSPATLSVSPGERATLSCRASQSVSGSYLAWYQQKPGQAPRLLIYATSSRASGIPARFSGSGSGTEFTLTISSLQSEDFAVYYCQQYYSGLTFGQGTKVEIK
B13: MAdCAM antibody Clone ID 54 of Table 6 (scFv) (scFv)
scFv: EVQLLESGGGLVQPGGSLRLSCAASGFTFGDYAMSWVRQAPGKGLEWVAVVSYDGTNKYYADSVKGRFTISRDNSKNTLYLQMNSLRAEDTAVYYCAKDICSSTSCYFDLWGRGTLVTVSSGGGGSGGGGSGGGGSGGGGSDIQMTQSPSSLSASVGDRVTITCRASQNINNYVNWYQQKPGKAPKLLIYDASNLETGVPSRFSGSGSGTDFTLTISSLQPEDFATYYCQQANSFPPTFGQGTRLEIK
B14: MAdCAM antibody Clone ID 55 of Table 6 (scFv) (scFv)
scFv: QVQLVQSGAEVKKPGASVKVSCKASGYTFTSYYMHWVRQAPGQGLEWMGIIDPSGGSTSYAQKFQGRVTMTRDTSTSTVYMELSSLRSEDTAVYYCAREEWSSGGVGYFDYWGQGTLVTVSSGGGGSGGGGSGGGGSGGGGSDIQMTQSPSSLSASVGDRVTITCRASQGISSYLAWYQQKPGKAPKLLIYATSSLQTGVPSRFSGSGSGTDFTLTISSLQPEDFATYYCQQTYSIPITFGQGTRLEIK
B15: MAdCAM antibody Clone ID 42 of Table 6 (scFv) (scFv)
scFv: QVQLVQSGAEVKKPGSSVKVSCKASGGTLSRYGVSWVRQAPGQGLEWMGGIIPIFGTTNYAQKFQGRVTITADESTSTAYMELSSLRSEDTAVYYCARDRVYYDSSGYPTWYFDLWGRGTLVTVSSGGGGSGGGGSGGGGSGGGGSEIVMTQSPATLSVSPGERATLSCRASQSVSSSYLAWYQQKPGQAPRLLIYGASTRATGIPARFSGSGSGTEFTLTISSLQSEDFAVYYCQQYGSSPITFGQGTKVEIK
B16: MAdCAM antibody Clone ID 49 of Table 6 (scFv) (scFv)
scFv: QVQLVQSGAEVKKPGASVKVSCKASGDTFTGYYIHWVRQAPGQGLEWMGWINPNSGGTNYAQKFQGRVTMTRDTSTSTVYMELSSLRSEDTAVYYCARSGLWLGSYYGMDVWGQGTLVTVSSGGGGSGGGGSGGGGSGGGGSDIQMTQSPSSLSASVGDRVTITCRASQTISIWLAWYQQKPGKAPKLLIYDASTLQSGVPSRFSGSGSGTDFTLTISSLQPEDFATYYCQQYSSYPLTFGQGTKVEIK
B17: MAdCAM antibody Clone ID 12 of Table 6 (scFv) (scFv)
scFv: QVQLVQSGAEVKKPGASVKVSCKASGYTFTGYYMHWVRQAPGQGLEWMGWIGPNSGDTNYAQKFQGRVTMTRDTSTSTVYMELSSLRSEDTAVYYCARDLDHNWYFDLWGRGTLVTVSSGGGGSGGGGSGGGGSGGGGSDIVMTQSPLSLPVTPGEPASISCRSSQSLLHSNGYNYLDWYLQKPGQSPQLLIYSSSNRAPGVPDRFSGSGSGTDFTLKISRVEAEDVGVYYCMQALHIPLTFGGGTKVEIK

Target: T1, human MAdCAM expressed on cells (human, UniProt Q13477 19-382)
T1 construct: whole, on cells; also called MADCAM1
T1 sequence (looked up): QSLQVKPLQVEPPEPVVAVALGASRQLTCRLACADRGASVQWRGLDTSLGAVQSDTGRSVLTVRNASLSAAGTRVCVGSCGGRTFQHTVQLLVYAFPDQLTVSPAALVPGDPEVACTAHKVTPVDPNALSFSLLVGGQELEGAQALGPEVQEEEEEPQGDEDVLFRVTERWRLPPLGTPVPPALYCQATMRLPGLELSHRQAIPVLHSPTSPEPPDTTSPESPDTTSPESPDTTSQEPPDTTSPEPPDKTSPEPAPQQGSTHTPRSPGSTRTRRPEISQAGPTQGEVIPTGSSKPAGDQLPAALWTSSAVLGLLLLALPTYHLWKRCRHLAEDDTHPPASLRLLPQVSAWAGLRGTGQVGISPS
Experiment: cell binding

Binder	binding result
B1	binds
B2	binds
B3	binds
B4	binds
B5	binds
B6	binds
B7	binds
B8	binds
B9	binds
B10	binds
B11	binds
B12	binds
B13	binds
B14	binds
B15	binds
B16	binds

Target: T2, mouse MAdCAM expressed on cells (mouse, UniProt Q61826 22-405)
T2 construct: whole, on cells
T2 sequence (looked up): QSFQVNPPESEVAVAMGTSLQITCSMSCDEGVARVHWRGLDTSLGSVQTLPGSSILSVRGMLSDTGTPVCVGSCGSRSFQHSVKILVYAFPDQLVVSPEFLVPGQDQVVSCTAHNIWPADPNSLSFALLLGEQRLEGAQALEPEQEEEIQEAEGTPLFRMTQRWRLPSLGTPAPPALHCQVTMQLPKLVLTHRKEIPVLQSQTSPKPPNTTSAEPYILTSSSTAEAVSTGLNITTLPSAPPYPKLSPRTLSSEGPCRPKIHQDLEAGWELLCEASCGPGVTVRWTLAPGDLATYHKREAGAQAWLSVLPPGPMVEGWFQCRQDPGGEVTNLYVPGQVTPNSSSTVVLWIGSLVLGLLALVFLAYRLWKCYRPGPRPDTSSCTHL
Experiment: cell binding

Binder	binding result
B1	no binding
B2	no binding
B3	no binding
B4	no binding
B5	no binding
B6	no binding
B7	binds
B8	no binding
B9	no binding
B10	no binding
B11	no binding
B12	no binding
B13	no binding
B14	no binding
B15	no binding
B17	no binding
B16	no binding
